According to the MegaScale stability set (Tsuboyama et al. 2023):

B1: 5KPH (parent)
chain: EEKRQVKQVAKEKLLEQSPNSKVQVRRVQKQGNTIRVELELRTNGKKENYTVEVERQGNTWTVKRITRT

Variants of: B1
Experiment: folding stability dG (cDNA display proteolysis); higher = more stable
Details: PBS, room temperature

Folding stability dG [kcal/mol] of substitutions, site by site:
P19: D 2.31; E 2.5; H 2.92; G 2.7; T 2.69; N 2.57; V 2.82; W 2.15; C 3.04; M 2.71; L 2.64; Y 2.13; Q 2.85; I 2.83; F 2.54; R 2.76; S 2.77; A 2.83; K 3.03
Q29: M 4.3; K 3.75; F 4.45; T 4.33; I 4.24; A 3.84; P 1.02; S 4.22; R 4.17; H 4.18; L 4.26; V 4.08; D 3.75; G 3.42; N 3.83; E 3.96; C 3.9; W 4.58; Y 4.51
Q17: A 3.68; E 3.31; M 4.52; S 3.59; W 3.6; N 3.69; V 3.91; C 3.75; P 1.82; H 4.04; I 4.39; D 3.46; R 3.92; Y 4; F 4.12; K 3.77; T 3.83; G 3.64; L 4.54
E16: N 3.21; G 3.25; P 2.15; A 3.8; M 3.38; T 3.34; K 3.24; I 3.04; Q 3.77; F 2.82; C 3.27; R 3.08; S 3.55; V 2.86; Y 2.61; L 3.47; H 3.17; W 2.86; D 3.16
K30: Y 4.7; L 4.03; F 4.62; A 4.22; H 4.05; E 3.78; D 3.8; R 4; Q 4.25; S 4.32; I 4.35; M 4.28; G 4.08; T 4.14; C 3.69; W 4.64; P 3.79; V 4.33; N 3.76
R27: E 2.76; V 3.12; M 3.43; P 1.38; C 3.45; L 3.53; Y 3.72; W 4.14; F 3.84; N 3.56; I 3.22; A 3.61; G 3.64; S 3.79; Q 3.3; H 3.71; T 3.37; K 3.62; D 3.1
V28: F 3.91; S 2.5; H 2.16; N 1.55; T 3.24; Y 4.35; K 1.74; I 3.99; E 1.75; L 4.03; R 1.56; C 3.4; P 1.34; Q 2.53; M 4.12; A 3.15; G 1.87; D 1.44; W 3.85
R26: I 4.25; C 3.65; N 3.51; L 4.62; K 4; Y 3.53; A 3.09; T 3.92; D 2.16; P 1.51; F 3.7; E 2.58; W 3.49; H 3.56; S 3.35; V 4.16; M 4.11; Q 3.49; G 3.32
V23: S 2.02; M 3.08; D 1.23; A 3.6; L 3.07; R 1.43; E 1.2; C 3.17; P 2.68; K 1.37; G 1.59; F 2.6; Q 1.79; N 1.26; Y 1.94; T 2.51; H 1.57; W 2.67; I 3.9
L14: R 2.08; T 2.26; F 2.92; K 2.18; C 3.29; A 3.13; I 3.75; H 1.79; Y 1.95; E 1.7; D 1.74; S 2.17; W 2.29; P 1.78; N 1.92; V 3.65; M 4.02; Q 1.9; G 2.07
L15: E 3.1; M 3.7; C 3.13; P 1.87; Y 3.14; V 3.01; I 3.02; A 2.99; W 2.92; T 2.92; R 3.33; F 3.03; K 3.36; H 2.98; D 2.07; S 2.83; Q 3.42; N 2.5; G 2.53
S18: D 3.23; Y 4.74; T 3.35; K 3.83; V 3.94; N 4.47; M 4.05; E 3.57; A 3.8; L 4.03; H 4.66; G 2.56; I 3.93; F 4.68; P 1.99; R 3.82; C 3.86; Q 3.82; W 4.39
S21: H 2.6; K 2.16; F 2.65; C 3.12; N 2.38; L 2.57; I 2.46; Y 2.67; Q 2.31; P 2.37; M 2.75; D 2.23; W 2.89; G 4.01; A 3.98; E 1.96; T 2.81; R 2.18; V 3.17
K22: E 4.13; F 4.16; S 3.83; Q 4.05; T 4.16; I 4.01; W 4.06; Y 4.05; D 3.8; M 3.85; C 3.65; R 3.85; N 3.62; V 4.01; P 2.37; G 3.2; H 3.91; A 3.71; L 3.99
K13: Y 4.07; L 3.42; W 3.48; M 3.7; N 2.71; R 3.61; P 2.43; T 3.78; Q 3.24; V 4.12; S 3.66
Q24: S 4.13; N 3.77; I 4.3; D 3.53; T 4.24; E 3.67; M 4.43; R 4.41; G 3.09; A 3.97; F 4.47; C 3.83; W 4.4; L 4.38; P 1.25; V 4.25; H 4.28; Y 4.48; K 4.33
V25: D 1.17; Y 2.81; T 2.85; L 2.91; N 1.72; H 2.19; W 2.7; F 3.77; E 1.74; C 3.09; A 2.95; P 2.2; I 3.76; G 1.64; R 1.71; S 1.84; M 2.63; Q 1.67; K 1.3
N20: L 3.6; D 3.66; G 4.21; R 3.5; C 3.53; W 2.38; T 3.6; I 3.03; M 3.58; V 2.78; A 3.77; F 3.35; H 3.64; S 3.81; P 2.3; E 3.53; Q 3.62; K 3.55; Y 3.32
